We go through 2 substances from patent US12427210B2, “Compounds comprising a fibroblast activation protein ligand and use thereof” (priority 2019, dated 2025).

Among the targets are Lck kinase (h) (human) (UniProt P06239); PDE3A (h) (human) (UniProt Q14432); PDE4D2 (h) (human) (UniProt Q08499); COX1(h) (human) (UniProt P23219).
In the next test the target is NMDA. The experiment in a line: radioligand displacement, compound at 10 µM. (In general: Loss of bound radioactivity is the signal in a displacement assay; it reports binding, not function.)
In test [1] the target is Ca2+ channel (L, dihydropyridine site). The experiment in a line: radioligand displacement, compound at 10 µM.
The target in another test is BZD (central). The experiment in a line: radioligand displacement, compound at 10 µM.
The target in another test is Na+ channel (site 2). Nature of the test: radioligand displacement, compound at 10 µM.
A further test addresses MAO-A. Nature of the test: radioligand displacement, compound at 10 µM.
The target in another test is KV channel. Nature of the test: radioligand displacement, compound at 10 µM.
In test [2] the target is Caspase-8 (Homo sapiens (Human)) (UniProt Q14790).
Sequence of Caspase-8 (Homo sapiens (Human)) (Q14790 217-479 limits assumed): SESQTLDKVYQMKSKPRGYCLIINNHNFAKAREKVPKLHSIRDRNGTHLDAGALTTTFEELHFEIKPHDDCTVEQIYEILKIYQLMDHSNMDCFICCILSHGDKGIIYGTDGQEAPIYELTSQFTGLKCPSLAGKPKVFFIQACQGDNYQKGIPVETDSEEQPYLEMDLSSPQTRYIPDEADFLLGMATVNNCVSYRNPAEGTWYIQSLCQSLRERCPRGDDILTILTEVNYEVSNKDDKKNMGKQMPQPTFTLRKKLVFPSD
Test [3] deals with Cathepsin V (Homo sapiens (Human)) (UniProt O60911).
Test [4] concerns the target Ubiquitin carboxyl-terminal hydrolase 14 (Homo sapiens (Human)) (UniProt P54578).
The target in test [5] is T1, Ubiquitin carboxyl-terminal hydrolase 2 (Homo sapiens (Human)) (UniProt O75604).
T1 sequence: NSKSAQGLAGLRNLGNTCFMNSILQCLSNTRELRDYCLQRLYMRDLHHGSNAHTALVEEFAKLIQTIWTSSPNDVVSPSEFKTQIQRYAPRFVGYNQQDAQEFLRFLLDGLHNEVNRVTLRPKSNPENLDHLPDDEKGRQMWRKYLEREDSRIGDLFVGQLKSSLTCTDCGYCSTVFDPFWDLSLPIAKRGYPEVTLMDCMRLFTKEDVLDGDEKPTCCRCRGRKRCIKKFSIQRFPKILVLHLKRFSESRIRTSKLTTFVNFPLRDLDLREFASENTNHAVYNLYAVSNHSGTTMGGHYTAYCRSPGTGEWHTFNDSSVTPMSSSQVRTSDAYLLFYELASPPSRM

For test [6], the target named is DPP8 (Homo sapiens (Human)) (UniProt Q6V1X1).
Test [7] has as its target Ubiquitin carboxyl-terminal hydrolase 8 (Homo sapiens (Human)) (UniProt P40818).
Test [8] concerns the target T2, Renin (Homo sapiens (Human)) (UniProt P00797).
T2 sequence: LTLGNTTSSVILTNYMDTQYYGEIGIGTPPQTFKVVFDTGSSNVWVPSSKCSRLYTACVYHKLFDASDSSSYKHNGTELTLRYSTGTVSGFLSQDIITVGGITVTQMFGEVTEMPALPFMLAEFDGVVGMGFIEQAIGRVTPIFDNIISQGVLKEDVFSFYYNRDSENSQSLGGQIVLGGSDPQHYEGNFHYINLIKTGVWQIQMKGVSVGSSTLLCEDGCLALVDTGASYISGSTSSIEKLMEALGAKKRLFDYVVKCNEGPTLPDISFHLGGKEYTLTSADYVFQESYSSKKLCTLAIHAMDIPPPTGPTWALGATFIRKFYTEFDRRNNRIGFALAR

The target of test [9] is T3, Deubiquitinase OTUD6B (Homo sapiens (Human)) (UniProt Q8N6M0).
T3 sequence: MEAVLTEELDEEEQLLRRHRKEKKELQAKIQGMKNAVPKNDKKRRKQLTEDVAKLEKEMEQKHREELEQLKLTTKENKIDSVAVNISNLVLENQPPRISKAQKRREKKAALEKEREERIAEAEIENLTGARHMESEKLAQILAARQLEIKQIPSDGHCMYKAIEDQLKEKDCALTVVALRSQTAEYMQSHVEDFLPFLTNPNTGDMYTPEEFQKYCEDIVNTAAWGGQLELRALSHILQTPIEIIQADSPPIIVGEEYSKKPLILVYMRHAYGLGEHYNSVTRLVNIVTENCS

For test [10], the target named is Beta secretase (Homo sapiens (Human)) (UniProt P56817).
For test [11], the target named is Acetylcholinesterase (h) (human) (UniProt P22303).
Sequence of Acetylcholinesterase (h) (human) (P22303 32-614 limits assumed): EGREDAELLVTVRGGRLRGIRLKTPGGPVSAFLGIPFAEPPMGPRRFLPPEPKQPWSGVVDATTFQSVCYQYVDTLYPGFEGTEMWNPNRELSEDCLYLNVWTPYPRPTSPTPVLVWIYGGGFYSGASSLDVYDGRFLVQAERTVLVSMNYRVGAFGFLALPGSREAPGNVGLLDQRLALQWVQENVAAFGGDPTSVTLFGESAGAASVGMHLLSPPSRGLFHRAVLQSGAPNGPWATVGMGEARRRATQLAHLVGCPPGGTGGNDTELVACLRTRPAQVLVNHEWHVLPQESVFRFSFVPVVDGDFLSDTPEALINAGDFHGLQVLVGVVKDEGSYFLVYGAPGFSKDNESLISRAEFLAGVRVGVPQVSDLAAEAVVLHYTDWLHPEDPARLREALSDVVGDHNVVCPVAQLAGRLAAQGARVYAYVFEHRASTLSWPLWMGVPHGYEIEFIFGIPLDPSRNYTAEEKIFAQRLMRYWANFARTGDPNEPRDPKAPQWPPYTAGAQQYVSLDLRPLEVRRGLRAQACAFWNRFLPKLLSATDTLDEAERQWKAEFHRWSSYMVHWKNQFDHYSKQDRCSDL
In the next test the target is T4, COX2(h) (human) (UniProt P35354).
T4 sequence: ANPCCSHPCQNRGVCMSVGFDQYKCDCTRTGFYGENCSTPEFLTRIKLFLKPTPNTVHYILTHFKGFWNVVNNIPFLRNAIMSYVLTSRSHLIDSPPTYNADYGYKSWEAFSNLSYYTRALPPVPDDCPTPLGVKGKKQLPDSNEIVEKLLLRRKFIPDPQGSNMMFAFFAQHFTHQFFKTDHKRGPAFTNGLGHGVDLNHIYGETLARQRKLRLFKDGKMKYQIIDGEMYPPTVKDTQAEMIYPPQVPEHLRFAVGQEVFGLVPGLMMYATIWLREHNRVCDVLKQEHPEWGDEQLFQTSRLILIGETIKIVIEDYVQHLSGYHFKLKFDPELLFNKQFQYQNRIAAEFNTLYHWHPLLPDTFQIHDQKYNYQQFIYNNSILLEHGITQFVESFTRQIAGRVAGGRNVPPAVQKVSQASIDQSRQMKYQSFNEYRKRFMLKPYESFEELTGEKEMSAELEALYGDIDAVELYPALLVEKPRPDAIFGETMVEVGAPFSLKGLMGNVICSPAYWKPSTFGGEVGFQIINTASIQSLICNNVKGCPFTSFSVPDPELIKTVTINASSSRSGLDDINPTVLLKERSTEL

Sequence of PDE4D2 (h) (human) (Q08499 303-809): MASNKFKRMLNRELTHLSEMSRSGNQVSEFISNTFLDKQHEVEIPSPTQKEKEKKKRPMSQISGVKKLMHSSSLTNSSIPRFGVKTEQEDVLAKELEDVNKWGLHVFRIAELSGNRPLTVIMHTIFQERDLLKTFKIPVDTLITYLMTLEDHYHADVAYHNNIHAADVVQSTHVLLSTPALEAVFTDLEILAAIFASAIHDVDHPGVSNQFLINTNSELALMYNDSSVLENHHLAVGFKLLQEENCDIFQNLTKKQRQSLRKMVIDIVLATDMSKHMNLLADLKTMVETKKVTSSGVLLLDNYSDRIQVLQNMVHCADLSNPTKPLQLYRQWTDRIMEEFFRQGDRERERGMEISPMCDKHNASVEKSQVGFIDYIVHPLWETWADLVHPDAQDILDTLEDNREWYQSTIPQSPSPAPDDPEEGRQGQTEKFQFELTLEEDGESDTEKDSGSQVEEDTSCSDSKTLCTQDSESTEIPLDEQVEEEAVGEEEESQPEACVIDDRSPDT
Sequence of COX1(h) (human) (P23219 24-599 limits assumed): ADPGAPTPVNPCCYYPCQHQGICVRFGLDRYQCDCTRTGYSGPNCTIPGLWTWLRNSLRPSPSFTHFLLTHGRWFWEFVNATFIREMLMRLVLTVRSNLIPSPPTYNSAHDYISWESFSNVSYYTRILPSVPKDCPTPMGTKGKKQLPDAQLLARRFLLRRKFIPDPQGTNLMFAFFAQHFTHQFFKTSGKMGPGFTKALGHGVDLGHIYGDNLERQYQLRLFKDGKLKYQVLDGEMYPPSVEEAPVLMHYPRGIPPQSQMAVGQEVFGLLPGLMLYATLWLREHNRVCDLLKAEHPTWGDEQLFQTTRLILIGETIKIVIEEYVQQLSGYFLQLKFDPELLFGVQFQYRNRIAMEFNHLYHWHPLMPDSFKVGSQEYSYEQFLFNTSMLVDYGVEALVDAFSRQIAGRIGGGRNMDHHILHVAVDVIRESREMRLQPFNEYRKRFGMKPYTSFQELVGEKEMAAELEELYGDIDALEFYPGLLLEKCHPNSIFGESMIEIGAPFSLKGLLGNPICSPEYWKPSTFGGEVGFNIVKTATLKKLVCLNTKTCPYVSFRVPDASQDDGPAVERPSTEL

For the substance “Hex-[Cys(tMeBn(DOTA-PP))-Pro-Pro-Thr-Gln-Phe-Cys]-Asp-NH2 (3BP-3407) (peptide)”, the % Inhibition of Specific Binding was 9% with NMDA; 42% in test [1]; -9% with BZD (central); -7% with Na+ channel (site 2); -5% with MAO-A; -5% in the test with KV channel. Also, the Percentage inhibition (%) (% inhibition at 10 µM) in test [2] is 0; in test [3] it was -18; in test [4], 5; in test [5], 7; in [6], 5; in test [7], 6. Further, the Percentage inhibition (%) (% inhibition at 10 µM) in [8] is 3; in test [9], 15; in test [10], -5. The % inhibition of control enzyme activity in test [11] was -6 % at 10 µM; in the test with COX2(h) (human), -14 % at 10 µM; with Lck kinase (h) (human), 10 % at 10 µM; with PDE3A (h) (human) it was -3 % at 10 µM; in the test with PDE4D2 (h) (human) it was -5 % at 10 µM; in the test with COX1(h) (human) it was 10 % at 10 µM.
On to “Hex-[Cys(tMeBn(DOTA-AET))-Pro-Pro-Thr-Gln-Phe-Cys]-OH (3BP-3554) (peptide)”, for which the % Inhibition of Specific Binding with NMDA is 1%; in [1] it was 54%; with BZD (central), 5%; with Na+ channel (site 2), 14%; with MAO-A, -25%; with KV channel, 4%. For the same substance, the Percentage inhibition (%) (% inhibition at 10 µM) in [2] is -3; in test [3], -1; in test [4], 2; in test [5], -1; in test [6], 11; in test [7], 1. Further, the Percentage inhibition (%) (% inhibition at 10 µM) was -1 in test [8], 0 in test [9] and 7 in test [10]. Further, the % inhibition of control enzyme activity in [11] is 1 % at 10 µM; in the test with COX2(h) (human), -22 % at 10 µM; with Lck kinase (h) (human), -4 % at 10 µM; with PDE3A (h) (human), -37 % at 10 µM; with PDE4D2 (h) (human), -4 % at 10 µM; in the test with COX1(h) (human), 8 % at 10 µM.
